As a reminder, the stoichiometry N is a count of units in the complex or per binding partner. A word on the Kd: it is a measure of binding affinity in units of concentration.

The text below walks through data of publication PMC7713382, “Structural analysis and insight into effector binding of the niacin-responsive repressor NiaR from Bacillus halodurans” (Scientific Reports, 2020).

Series [1] has as its target T1, BhNiaR (Halalkalibacterium halodurans, UniProt Q9KDJ7).
T1 construct: gene BH1216; full length, 179 residues; E. coli BL21(DE3) star pLysS, pET-28b(+); N-terminal His-tag removed with PreScission protease; residues 7-179 modelled
T1 sequence (Q9KDJ7 1-179): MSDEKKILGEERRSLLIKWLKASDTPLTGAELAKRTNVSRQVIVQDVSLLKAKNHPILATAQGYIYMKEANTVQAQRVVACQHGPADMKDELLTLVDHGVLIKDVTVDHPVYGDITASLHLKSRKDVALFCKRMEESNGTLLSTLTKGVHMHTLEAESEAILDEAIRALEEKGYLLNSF
The series can be described thus: X-ray crystal structure, co-crystallization, […] Å. The note with it: 2 mM niacin, 0.1 M Tris-HCl pH 8.5, 15% PEG 6000; Zn2+ in site; C-terminal 3H domain, carboxyl coordinates zinc and H-bonds His83, Tyr112 of second subunit in pocket. It is filed as binding.

For series [2], the target named is niacin-responsive repressor NiaR from Bacillus halodurans (Bacillus halodurans). Kind of series: SEC-MALS; Superdex-200 10/300 GL, 20 mM Tris-HCl pH 8.0, 200 mM NaCl, 1 mM DTT; 10-12 mg/ml, 0.1 ml injected, 0.5 ml/min.
Series [3] has as its target T2, BhNiaR (Bacillus halodurans, UniProt Q9KDJ7 1-179).
T2 sequence: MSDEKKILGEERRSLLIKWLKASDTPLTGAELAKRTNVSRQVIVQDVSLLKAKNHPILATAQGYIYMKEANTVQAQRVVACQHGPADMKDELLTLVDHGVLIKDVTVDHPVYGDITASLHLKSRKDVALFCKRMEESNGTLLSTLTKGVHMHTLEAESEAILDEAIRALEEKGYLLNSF
Kind of series: EMSA; 1 mM niacin; Zn2+-bound protein; EMSA: 20 mM Tris pH 8.0, 100 mM KCl, 1 mM MgCl2, 1 mM DTT, 5% glycerol, +/- 1 mM niacin; 80 nM DNA, 0-3 µM protein; 30 min at room temperature (Methods) or 277. The note with it: protein: recombinant; tags: N-terminal His-tag removed with PreScission protease; chain copies: 2; label: none (SYBR Green stain); blunt. (A gel shift assay detects complexes by their altered migration in electrophoresis.)

Take `O=C(O)c1cccnc1` [niacin]: the “X-ray crystal structure, co-crystallization, 1.8 Å” value in series [1] is recorded as “A niacin molecule is bound to the C-terminal domain of BhNiaR near the metal-binding site”. As for “niacin-responsive repressor NiaR from Bacillus halodurans (natural protein)”, in series [2], the stoichiometry N was determined as 2.

B1: nifS-nadB promoter 34-bp cognate DNA (type I) (dsDNA)
DNA 1: CTCATTTACATATGTCTTGACATCTATATTTACA
DNA 2: TGTAAATATAGATGTCAAGACATATGTAAATGAG
Take B1: the Kd in series [3] was around 500 nM.
